Read-outs that look alike come from different tables or passages of the source.
What was measured:
[1] = biological target: T1, recombinant human TfR (2474-TR, R&D Systems), biotinylated (human, UniProt P02786 89-760, biotinylated with EZ-Link NHS-PEG4-Biotinylation Kit); experiment: SPR (Biacore), biotinylated human TfR captured on an SA chip, VHH injected, 1:1 dissociation fit, pH 5.5
T1 construct: Bought protein; also called immobilized recombinant human TfR; biotinylated human TfR
Description: (§1) In brief, DNA was synthesized by Genscript (Piscataway, New Jersey, United States) and cloned into an E. coli compatible expression plasmid according to standard methods. E. coli TG1 bacteria were transformed with those plasmids and expressions induced. Crude extracts were prepared and analyzed for binding by flow cytometry on human TfR overexpressing cells. […] Next, off rates of these selected variants were determined on recombinant human TfR by surface plasmon resonance (Biacore, Marlborough, Massachusetts, United States). Biotinylated human TfR was captured on a streptavidin-coated SA sensor chip (Cytiva). Increasing concentrations of nanobodies were sequentially injected in a single cycle at a flow rate of 30 μL/min. The dissociation was monitored for around 20 min. A reference flow was used as a control for non-specific binding and refractive index changes. Several buffer blanks were used for double referencing. Off rates were derived after fitting the experimental data to the 1:1 binding model with the Biacore Evaluation Software.

[2] = biological target: T1, recombinant human TfR (2474-TR, R&D …); experiment: SPR (Biacore), biotinylated human TfR captured on an SA chip, VHH injected, 1:1 dissociation fit, pH 7.4
Description: as §1

[3] = biological target: T1, recombinant human TfR (2474-TR, R&D …); experiment: SPR (Biacore), ratio of the off rates on human TfR at the two pH values; the printed number equals kd at pH 5.5 divided by kd at pH 7.4
Description: as §1

[4] = biological target: T1, recombinant human TfR (2474-TR, R&D …); experiment: SPR (Biacore), biotinylated human TfR captured on an SA chip, VHH injected, 1:1 dissociation fit, pH 5.5; remark: listed apart in the source
Description: as §1, with “E.” for “In brief, DNA was synthesized by Genscript (Piscataway, New Jersey, United States) and cloned into an E. coli compatible expression plasmid according to standard methods. E.”
(§2) Surface Plasmon Resonance (SPR) was used to measure the interaction between VHHs and human or cynomolgus TfR receptor. Human TfR (2474-TR, R&D Systems) and cynomolgus TfR (90253-C07H, Sino Biological) were biotinylated with the EZ-Link NHS-PEG4-Biotinylation Kit (ThermoFischer Scientific) according to the manufacturer instructions. The binding experiments were performed at 25° C. on a Biacore T200 instrument (Cytiva, Uppsala, Sweden) in HBS-EP+ buffer (10 mM HEPES, 150 mM NaCl, 3 mM EDTA and 0.05% v/v Surfactant P20). Biotinylated human TfR and cynomolgus TfR were captured on a SA sensor chip (Cytiva) at a density of around 250 RU. Increasing concentrations of VHHs were sequentially injected in one single cycle at a flow rate of 30 μl/min. The dissociation was monitored for 20 min. […] A reference flow was used as a control for non-specific binding and refractive index changes. Several buffer blanks were used for double referencing. Binding affinities (KD) and kinetic rate constants (kₒₙ, koff) were derived after fitting the experimental data to the 1:1 binding model with the Biacore T200 Evaluation Software 3.1 using the single cycle kinetic procedure.

[5] = biological target: T1, recombinant human TfR (2474-TR, R&D …); experiment: SPR (Biacore), biotinylated human TfR captured on an SA chip, VHH injected, 1:1 dissociation fit, pH 7.4; remark: listed apart in the source
Description: as §1, with “E.” for “In brief, DNA was synthesized by Genscript (Piscataway, New Jersey, United States) and cloned into an E. coli compatible expression plasmid according to standard methods. E.”
as §2

[6] = biological target: T1, recombinant human TfR (2474-TR, R&D …); experiment: SPR (Biacore), ratio of the off rates on human TfR at the two pH values; the printed number equals kd at pH 5.5 divided by kd at pH 7.4; remark: listed apart in the source
Description: as §1, with “E.” for “In brief, DNA was synthesized by Genscript (Piscataway, New Jersey, United States) and cloned into an E. coli compatible expression plasmid according to standard methods. E.”
as §2

T1 sequence (P02786 89-760 limits assumed): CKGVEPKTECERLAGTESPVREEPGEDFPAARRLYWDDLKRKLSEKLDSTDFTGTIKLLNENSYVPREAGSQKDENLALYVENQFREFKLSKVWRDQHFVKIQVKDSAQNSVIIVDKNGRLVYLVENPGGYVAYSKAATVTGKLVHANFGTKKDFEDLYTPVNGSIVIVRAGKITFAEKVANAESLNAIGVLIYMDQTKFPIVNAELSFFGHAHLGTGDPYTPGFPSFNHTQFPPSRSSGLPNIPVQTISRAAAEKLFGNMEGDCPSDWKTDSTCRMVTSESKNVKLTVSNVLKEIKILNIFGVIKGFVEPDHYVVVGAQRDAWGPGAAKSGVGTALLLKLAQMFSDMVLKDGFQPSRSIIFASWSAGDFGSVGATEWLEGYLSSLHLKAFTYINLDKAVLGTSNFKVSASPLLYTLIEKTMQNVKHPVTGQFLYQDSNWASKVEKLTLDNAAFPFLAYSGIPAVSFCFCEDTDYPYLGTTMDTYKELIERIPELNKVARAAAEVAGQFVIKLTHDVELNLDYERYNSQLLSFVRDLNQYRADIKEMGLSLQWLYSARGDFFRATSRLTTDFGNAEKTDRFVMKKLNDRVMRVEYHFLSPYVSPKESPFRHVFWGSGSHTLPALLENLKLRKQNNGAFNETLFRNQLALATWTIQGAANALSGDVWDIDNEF

Row | Binder | koff [1] | koff [2] | off-rate ratio kd pH5.5/kd pH7.4 [3] | koff [4] | koff [5] | off-rate ratio kd pH5.5/kd pH7.4 [6]
1 | BBB00677 (VHH, also called variant of BBB00533) VHH: EVQLVESGGGSVQPGGSLRLSCTASGRTFNYAMGWFRQAPGKNREFVATIDWKDGSSYYLDSVRGRFTIERDDAKNTVYLQMNSLRPEDAAVYTCAVGDGDYCSTYTCAAEVEYDYWGQGTLVTVSS | 0.00946 s⁻¹ | 0.00545 s⁻¹ | 1.74 |  |  | 
2 | BBB00710 (VHH, also called histidine mutant of BBB00515) VHH: EVQLVESGGGSVQPGGSLRLSCTASGRTFNYAMGWFRQAPGKNREFVATIDWKDGHSYYLDSVRGRFTIERDDAKNTVYLQMNSLRPEDAAVYTCAVGDGDYCSTYTCAAEVEYDYWGQGTLVTVSS | 0.0126 s⁻¹ | 0.00444 s⁻¹ | 2.84 |  |  | 
3 | BBB00719 (VHH, Histidine mutant) VHH: EVQLVESGGGSVQPGGSLRLSCTASGRTFNYAMGWFRQAPGKNREFVATIDWKDGSSYYLDSVRGRFTIERDDAKNTVYLQMNSLRPEDAAVYTCAVGDGDYCSHYTCAAEVEYDYWGQGTLVTVSS | 0.0091 s⁻¹ | 0.00586 s⁻¹ | 1.55 |  |  | 
4 | BBB00695 (VHH, Histidine mutant) VHH: EVQLVESGGGSVQPGGSLRLSCTASGHTFNYAMGWFRQAPGKNREFVATIDWKDGSSYYLDSVRGRFTIERDDAKNTVYLQMNSLRPEDAAVYTCAVGDGDYCSTYTCAAEVEYDYWGQGTLVTVSS | 0.00874 s⁻¹ | 0.00577 s⁻¹ | 1.51 |  |  | 
5 | BBB00704 (VHH, also called histidine mutant of BBB00515) VHH: EVQLVESGGGSVQPGGSLRLSCTASGRTFNYAMGWFRQAPGKNREFVATHDWKDGSSYYLDSVRGRFTIERDDAKNTVYLQMNSLRPEDAAVYTCAVGDGDYCSTYTCAAEVEYDYWGQGTLVTVSS | 0.00911 s⁻¹ | 0.00358 s⁻¹ | 2.55 |  |  | 
6 | BBB00699 (VHH, Histidine mutant) VHH: EVQLVESGGGSVQPGGSLRLSCTASGRTFNHAMGWFRQAPGKNREFVATIDWKDGSSYYLDSVRGRFTIERDDAKNTVYLQMNSLRPEDAAVYTCAVGDGDYCSTYTCAAEVEYDYWGQGTLVTVSS | 0.00858 s⁻¹ | 0.00524 s⁻¹ | 1.64 |  |  | 
7 | BBB00716 (VHH, Histidine mutant) VHH: EVQLVESGGGSVQPGGSLRLSCTASGRTFNYAMGWFRQAPGKNREFVATIDWKDGSSYYLDSVRGRFTIERDDAKNTVYLQMNSLRPEDAAVYTCAVGDGHYCSTYTCAAEVEYDYWGQGTLVTVSS | 0.00904 s⁻¹ | 0.00533 s⁻¹ | 1.7 |  |  | 
8 | BBB00694 (VHH, Histidine mutant) VHH: EVQLVESGGGSVQPGGSLRLSCTASHRTFNYAMGWFRQAPGKNREFVATIDWKDGSSYYLDSVRGRFTIERDDAKNTVYLQMNSLRPEDAAVYTCAVGDGDYCSTYTCAAEVEYDYWGQGTLVTVSS | 0.00728 s⁻¹ | 0.00538 s⁻¹ | 1.35 |  |  | 
9 | BBB00737 (VHH, Histidine mutant) VHH: EVQLVESGGGLVQAGGSLRLSCAASHSIFSINAMGWYRQAPGKQRELVAVITSGGSTIYADSVKGRFTISRDNAENTVYLQMNSLRPEDTAVYYCNAHVGLKVPTIQELSLGFGSWGQGTLVTVSS |  |  |  | 0.02 s⁻¹ | 0.00861 s⁻¹ | 2.32

Other lines, results leading:

Row | koff [1] | koff [2] | off-rate ratio kd pH5.5/kd pH7.4 [3] | koff [4] | koff [5] | off-rate ratio kd pH5.5/kd pH7.4 [6] | Binder
10 | 0.0154 s⁻¹ | 0.00695 s⁻¹ | 2.21 |  |  |  | BBB00718 (VHH, also called histidine mutant of BBB00515) VHH: EVQLVESGGGSVQPGGSLRLSCTASGRTFNYAMGWFRQAPGKNREFVATIDWKDGSSYYLDSVRGRFTIERDDAKNTVYLQMNSLRPEDAAVYTCAVGDGDYCHTYTCAAEVEYDYWGQGTLVTVSS
11 | 0.0113 s⁻¹ | 0.00562 s⁻¹ | 2.01 |  |  |  | BBB00729 (VHH, also called histidine mutant of BBB00515) VHH: EVQLVESGGGSVQPGGSLRLSCTASGRTFNYAMGWFRQAPGKNREFVATIDWKDGSSYYLDSVRGRFTIERDDAKNTVYLQMNSLRPEDAAVYTCAVGDGDYCSTYTCAAEVEYDHWGQGTLVTVSS
12 | 0.0109 s⁻¹ | 0.00506 s⁻¹ | 2.15 |  |  |  | BBB00698 (VHH, also called histidine mutant of BBB00515) VHH: EVQLVESGGGSVQPGGSLRLSCTASGRTFHYAMGWFRQAPGKNREFVATIDWKDGSSYYLDSVRGRFTIERDDAKNTVYLQMNSLRPEDAAVYTCAVGDGDYCSTYTCAAEVEYDYWGQGTLVTVSS
13 | 0.00937 s⁻¹ | 0.00511 s⁻¹ | 1.84 |  |  |  | BBB00709 (VHH, also called histidine mutant of BBB00515) VHH: EVQLVESGGGSVQPGGSLRLSCTASGRTFNYAMGWFRQAPGKNREFVATIDWKDHSSYYLDSVRGRFTIERDDAKNTVYLQMNSLRPEDAAVYTCAVGDGDYCSTYTCAAEVEYDYWGQGTLVTVSS
14 | 0.0127 s⁻¹ | 0.00787 s⁻¹ | 1.62 |  |  |  | BBB00728 (VHH, Histidine mutant) VHH: EVQLVESGGGSVQPGGSLRLSCTASGRTFNYAMGWFRQAPGKNREFVATIDWKDGSSYYLDSVRGRFTIERDDAKNTVYLQMNSLRPEDAAVYTCAVGDGDYCSTYTCAAEVEYHYWGQGTLVTVSS
15 | 0.0086 s⁻¹ | 0.00547 s⁻¹ | 1.57 |  |  |  | BBB00708 (VHH, Histidine mutant) VHH: EVQLVESGGGSVQPGGSLRLSCTASGRTFNYAMGWFRQAPGKNREFVATIDWKHGSSYYLDSVRGRFTIERDDAKNTVYLQMNSLRPEDAAVYTCAVGDGDYCSTYTCAAEVEYDYWGQGTLVTVSS
16 | 0.00632 s⁻¹ | 0.00439 s⁻¹ | 1.44 |  |  |  | BBB00707 (VHH, Histidine mutant) VHH: EVQLVESGGGSVQPGGSLRLSCTASGRTFNYAMGWFRQAPGKNREFVATIDWHDGSSYYLDSVRGRFTIERDDAKNTVYLQMNSLRPEDAAVYTCAVGDGDYCSTYTCAAEVEYDYWGQGTLVTVSS
17 | 0.0107 s⁻¹ | 0.00596 s⁻¹ | 1.79 |  |  |  | BBB00697 (VHH, also called histidine mutant of BBB00515) VHH: EVQLVESGGGSVQPGGSLRLSCTASGRTHNYAMGWFRQAPGKNREFVATIDWKDGSSYYLDSVRGRFTIERDDAKNTVYLQMNSLRPEDAAVYTCAVGDGDYCSTYTCAAEVEYDYWGQGTLVTVSS
18 |  |  |  | 0.0183 s⁻¹ | 0.00782 s⁻¹ | 2.35 | BBB00736 (VHH, also called variant of BBB00515) VHH: EVQLVESGGGLVQAGGSLRLSCAASGSIFSINAMGWYRQAPGKQRELVAVITSGGSTIYADSVKGRFTISRDNAENTVYLQMNSLRPEDTAVYYCNAHVGLKVPTIQELSLGFGSWGQGTLVTVSS

Reference: patent US20260274981A1 (VIB VZW, published 2026)
